Laboratory results taken from paper PMC4546403.

B1: Drosophila Smo (dSmo): dSmoNQ5 (protein)
parent chain: MQYLNFPRMPNIMMFLEVAILCLWVVADASASSAKFGSTTPASAQQSDVELEPINGTLNYRLYAKKGRDDKPWFDGLDSRHIQCVRRARCYPTSNATNTCFGSKLPYELSSLDLTDFHTEKELNDKLNDYYALKHVPKCWAAIQPFLCAVFKPKCEKINGEDMVYLPSYEMCRITMEPCRILYNTTFFPKFLRCNETLFPTKCTNGARGMKFNGTGQCLSPLVPTDTSASYYPGIEGCGVRCKDPLYTDDEHRQIHKLIGWAGSICLLSNLFVVSTFFIDWKNANKYPAVIVFYINLCFLIACVGWLLQFTSGSREDIVCRKDGTLRHSEPTAGENLSCIVIFVLVYYFLTAGMVWFVFLTYAWHWRAMGHVQDRIDKKGSYFHLVAWSLPLVLTITTMAFSEVDGNSIVGICFVGYINHSMRAGLLLGPLCGVILIGGYFITRGMVMLFGLKHFANDIKSTSASNKIHLIIMRMGVCALLTLVFILVAIACHVTEFRHADEWAQSFRQFIICKISSVFEEKSSCRIENRPSVGVLQLHLLCLFSSGIVMSTWCWTPSSIETWKRYIRKKCGKEVVEEVKMPKHKVIAQTWAKRKDFEDKGRLSITLYNTHTDPVGLNFDVNDLNSSETNDISSTWAAYLPQCVKRRMALTGAATGNSSSHGPRKNSLDSEISVSVRHVSVESRRNSVDSQVSVKIAEMKTKVASRSRGKHGGSSSNRRTQRRRDYIAAATGKSSRRRESSTSVESQVIALKKTTYPNASHKVGVFAHHSSKKQHNYTSSMKRRTANAGLDPSILNEFLQKNGDFIFPFLQNQDMSSSSEEDNSRASQKIQDLNVVVKQQEISEDDHDGIKIEELPNSKQVALENFLKNIKKSNESNSNRHSRNSARSQSKKSQKRHLKNPAADLDFRKDCVKYRSNDSLSCSSEELDVALDVGSLLNSSFSGISMGKPHSRNSKTSCDVGIQANPFELVPSYGEDELQQAMRLLNAASRQRTEAANEDFGGTELQGLLGHSHRHQREPTFMSESDKLKMLLLPSK
B2: Drosophila Smo (dSmo): N213Q (protein)
parent chain: B1 parent chain
B3: Drosophila Smo (dSmo): N336Q (protein)
parent chain: B1 parent chain
B4: Drosophila Smo (dSmo): N213Q,N336Q (protein)
parent chain: B1 parent chain
B5: Drosophila Smo (dSmo): dSmoN336Q (protein)
parent chain: B1 parent chain
B6: Drosophila Smo (dSmo): dSmoN213Q,N336Q (protein)
parent chain: B1 parent chain

How the values were obtained:
[1] = western blot of wing imaginal disc lysates; conditions: glycan lost; control: wild type dSmo transgene
[2] = immunofluorescence, Hh-induced plasma membrane vs ER marker, Cl8; conditions: glycan lost; control: wild type dSmo
[3] = cycloheximide chase, Cl8 cells, densitometry; conditions: glycan lost; control: wild type dSmo
[4] = western blot of Cl8 cell lysates; conditions: glycan lost; control: wild type dSmo
[5] = EndoH-resistant post-ER vs EndoH-sensitive ER fraction, western; conditions: glycan lost; control: wild type dSmo
[6] = biotin-maleimide free-thiol labelling, NeutrAvidin capture (disulfide integrity); conditions: glycan lost; control: wild type dSmo

| Protein | expression_or_secretion [1] | localisation_or_trafficking [2] | degradation_or_half_life, half_life [3] | expression_or_secretion [4] | localisation_or_trafficking [5] | stability_or_folding [6] |
| --- | --- | --- | --- | --- | --- | --- |
| B1 | no change | abolishes | increases, ~4 vs ~1 | increases | – | – |
| B2 | – | no change | – | – | no change | – |
| B3 | – | abolishes | – | – | decreases | decreases |
| B4 | – | decreases | – | – | decreases | decreases |
| B5 | – | – | – | increases | – | – |
| B6 | increases | – | – | – | – | – |
